Assay [1] concerns the target T1, Recombinant Human ErbB3/FC Chimera-His tag (human, UniProt P21860 20-643).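 Further: surface plasmon resonance with DVD-Ig proteins captured on an anti-IgG chip and recombinant antigen flowed over in HBS-EP buffer, Langmuir global fit, KD taken as koff/kon.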
T1 construct: bought reagent
The experiment in a line: SPR (Biacore), C-terminal VD. (Surface plasmon resonance follows binding to a sensor surface in real time, without labels.)
Method: (§1) The BIACORE assay (Biacore, Inc, Piscataway, N.J.) determined the affinity of antibodies or DVD-Ig proteins with kinetic measurements of on-rate and off-rate constants. Binding of antibodies or DVD-Ig proteins to a target antigen (for example, a purified recombinant target antigen) was determined by surface plasmon resonance-based measurements with a Biacore® 1000 or 3000 instrument (Biacore AB, Uppsala. Sweden) using running HBS-EP (10 mM HEPES [pH 7.4], 150 mM NaCl, 3 mM EDTA, and 0.005% surfactant P20) at 25° C. […] For example, approximately 5000 RU of goat anti-mouse IgG, (Fcγ), fragment specific polyclonal antibody (Pierce Biotechnology Inc, Rockford, Ill.) diluted in 10 mM sodium acetate (pH 4.5) was directly immobilized across a CM5 research grade biosensor chip using a standard amine coupling kit according to manufacturer's instructions and procedures at 25 μg/ml. Unreacted moieties on the biosensor surface were blocked with ethanolamine. Modified carboxymethyl dextran surface in flowcell 2 and 4 was used as a reaction surface. Unmodified carboxymethyl dextran without goat anti-mouse IgG in flow cell 1 and 3 was used as the reference surface. For kinetic analysis, rate equations derived from the 1:1 Langmuir binding model were fitted simultaneously to association and dissociation phases of all eight injections (using global fit analysis) with the use of Biaevaluation 4.0.1 software. Purified antibodies or DVD-Ig proteins were diluted in HEPES-buffered saline for capture across goat anti-mouse IgG specific reaction surfaces. Antibodies or DVD-Ig proteins to be captured as a ligand (25 μg/ml) were injected over reaction matrices at a flow rate of 5 μl/minute. The association and dissociation rate constants, kₒₙ (M⁻¹s⁻¹) and koff (s⁻¹) were determined under a continuous flow rate of 25 μl/minute. Rate constants were derived by making kinetic binding measurements at different antigen concentrations ranging from 10-200 nM. The equilibrium dissociation constant (M) of the reaction between antibodies or DVD-Ig proteins and the target antigen was then calculated from the kinetic rate constants by the following formula: KD=koff/kₒₙ. Binding was recorded as a function of time and kinetic rate constants were calculated.

In assay [2] the target is T2, Recombinant Human MSP Receptor ECD-His tag (human, UniProt Q04912 25-957).
T2 construct: extracellular domain; bought reagent; also called RON
As to the kind of experiment: SPR (Biacore), N-terminal VD.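 Further: capture of antibodies or DVD-Ig proteins on an anti-mouse IgG chip surface, recombinant antigen injected at 10–200 nM in HBS-EP running buffer at 25 °C.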
Method: as §1

The target in another assay is T3, EGFR on the cell surface (human, UniProt P00533 25-1210).
T3 construct: whole, on cells
As to the kind of experiment: flow cytometry on cells, 2 ug/mL, N-terminal VD.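 Further: cells stained for 30 to 60 min on ice.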

Assay [3] deals with T4, ErbB3 on the cell surface (human, UniProt P21860 20-1342).
T4 construct: whole, on cells
The experiment in a line: flow cytometry on cells, 2 ug/mL, C-terminal VD.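 Further: cells stained for 30 to 60 min on ice.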 In general terms: In flow cytometry, cells or beads pass a laser one at a time.
Method: (§2) Stable cell lines overexpressing a cell-surface antigen of interest or human tumor cell lines were harvested from tissue culture flasks and resuspended in phosphate buffered saline (PBS) containing 5% fetal bovine serum (PBS/FBS). Prior to staining, human tumor cells were incubated on ice with (100 μl) human IgG at 5 μg/ml in PBS/FCS. 1-5×10⁵ cells were incubated with antibody or DVD-Ig (2 μg/mL) in PBS/FBS for 30-60 minutes on ice. […] After 30 minutes incubation on ice, cells were washed twice and resuspended in PBS/FBS. Fluorescence was measured using a Becton Dickinson FACSCalibur (Becton Dickinson, San Jose, Calif.).
(§3) The geometric mean is the n root of the multiplication product of n fluorescent signals (a1×a2×a3 . . . an). With log-transformed data the geometric mean is used to normalize the weighting of the data distribution.

Assay [4] deals with T4, ErbB3 on the cell surface. The experiment in a line: flow cytometry on cells, 2 ug/mL.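 Further: cells stained for 30 to 60 min on ice.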
Method: as §2, §3
The target in assay [5] is T4, ErbB3 on the cell surface. As to the kind of experiment: flow cytometry on cells, 2 ug/mL, N-terminal VD.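 Further: cells stained for 30 to 60 min on ice.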

Experimental findings from patent US20130195871A1 (AbbVie / Abbott, published 2013) are described below.

Broadly, the Kd is the equilibrium constant for the complex coming apart. Usually koff stands for the rate constant with which the complex falls apart. Broadly, the kon is the second-order rate constant of association.

B1: DVD2332 (bispecific antibody)
VH: QVQLQESGPGLVKPSEILSLTCTVSGGSISSHYWSWVRQPPGKGLEWIGYIYYSGSTNYNPSLKSRVTISVDTSKNQFSLNLSSVTAADTAVYYCARIPNYYDRSGYYPGYWYFDLWGRGTLVTVSSASTKGPEVQLLESGGGLVQPGGSLRLSCAASGFTFSHYVMAWVRQAPGKGLEWVSSISSSGGWTLYADSVKGRFTISRDNSKNTLYLQMNSLRAEDTAVYYCTRGLKMATIFDYWGQGTLVTVSS
VL: QAVLTQPSSLSAPPGASASLTCTLRSGFNVDSYRISWYQQKPGSPPQYLLRYKSDSDKQQGSGVPSRFSGSKDASANAGILLISGLQSEDEADYYCMIWHSSAWVFGGGTKLTVLRQPKAAPQSALTQPASVSGSPGQSITISCTGTSSDVGSYNVVSWYQQHPGKAPKLIIYEVSQRPSGVSNRFSGSKSGNTASLTISGLQTEDEADYYCCSYAGSSIFVIFGGGTKVTVL
notes: DVD-Ig, outer AB034 / inner AB116
Regarding B1, the binding result in assay [1] and in assay [2] was “no binding (tested: 10-200 nM)” throughout.

B2: DVD2292 (bispecific antibody)
VH: EVQLVESGGGLVQPGGSLRLSCAASGFSLTNYGVHWVRQAPGKGLEWLGVGWSGGNTDYNTPFTSRLTINKDNSKNTVYLQMNSLRAEDTAVYYCARALTWYDYEFAYWGQGTLVTVSSASTKGPEVQLVESGGGLVQPGGSLRLSCAASGFTFSIYSMNWVRQAPGKGLEWVSYISSSSSTIYYADSVKGRFTISRDNAKNSLYLQMNSLRDEDTAVYYCARDRGDFDAFDIWGQGTMVTVSS
VL: DILLTQSPGTLSLSPGERATLSCRASQSIYTNIHWYQQKPGQAPRLLIKYASESISGIPDRFSGSGSGTDFTLTISRLEPEDFAVYYCQQNLNWPTTFGQGTKLEIKRTVAAPDIQMTQSPSSLSASVGDRVTITCQASQDITNYLNWYQQKPGKAPKLLIYDASNLETGVPSRFSGSGSGTDFTFTISSLQPEDIATYNCQQCENFPITFGQGTRLEIK
notes: DVD-Ig, outer AB400 / inner AB063
In the case of B2, the figures for the “GEO MEAN” value (with EGFR on the cell surface; in assay [3]) were 519 and 20.6, respectively.

B3: DVD2296 (bispecific antibody)
VH: EVQLVESGGGLVQPGGSLRLSCAASGFSLTNYGVHWVRQAPGKGLEWLGVGWSGGNTDYNTPFTSRLTINKDNSKNTVYLQMNSLRAEDTAVYYCARALTWYDYEFAYWGQGTLVTVSSASTKGPQVQLQQWGAGLLKPSETLSLTCAVYGGSFSGYYWSWIRQPPGKGLEWIGEINHSGSTNYNPSLKSRVTISVETSKNQFSLKLSSVTAADTAVYYCARDKWTWYFDLWGRGTLVTVSS
VL: DILLTQSPGTLSLSPGERATLSCRASQSIYTNIHWYQQKPGQAPRLLIKYASESISGIPDRFSGSGSGTDFTLTISRLEPEDFAVYYCQQNLNWPTTFGQGTKLEIKRTVAAPDIEMTQSPDSLAVSLGERATINCRSSQSVLYSSSNRNYLAWYQQNPGQPPKLLIYWASTRESGVPDRFSGSGSGTDFTLTISSLQAEDVAVYYCQQYYSTPRTFGQGTKVEIK
notes: DVD-Ig, outer AB400 / inner AB062
Consider B3, for which the “GEO MEAN” value amounted to 490 with EGFR on the cell surface and 16.6 in assay [3].

B4: DVD2294 (bispecific antibody)
VH: EVQLVESGGGLVQPGGSLRLSCAASGFSLTNYGVHWVRQAPGKGLEWLGVGWSGGNTDYNTPFTSRLTINKDNSKNTVYLQMNSLRAEDTAVYYCARALTWYDYEFAYWGQGTLVTVSSASTKGPEVQLLESGGGLVQPGGSLRLSCAASGFTFSHYVMAWVRQAPGKGLEWVSSISSSGGWTLYADSVKGRFTISRDNSKNTLYLQMNSLRAEDTAVYYCTRGLKMATIFDYWGQGTLVTVSS
VL: DILLTQSPGTLSLSPGERATLSCRASQSIYTNIHWYQQKPGQAPRLLIKYASESISGIPDRFSGSGSGTDFTLTISRLEPEDFAVYYCQQNLNWPTTFGQGTKLEIKRTVAAPQSALTQPASVSGSPGQSITISCTGTSSDVGSYNVVSWYQQHPGKAPKLIIYEVSQRPSGVSNRFSGSKSGNTASLTISGLQTEDEADYYCCSYAGSSIFVIFGGGTKVTVL
notes: DVD-Ig, outer AB400 / inner AB116
B4: the “GEO MEAN” value in the assay with EGFR on the cell surface is 618; in assay [3], 15.

B5: DVD2318 (bispecific antibody)
VH: EVQLVQSGGGLVKPGGSLRLSCAASGFTFSSYAMHWVRQAPGKGLEWVAVISYDGSNKYYADSVKGRFTISRDNSKNTLYLQMNSLRAEDTAVYYCARFSGWPNNYYYYGMDVWGQGTTVTVSSASTKGPEVQLVESGGGLVQPGGSLRLSCAASGFTFSIYSMNWVRQAPGKGLEWVSYISSSSSTIYYADSVKGRFTISRDNAKNSLYLQMNSLRDEDTAVYYCARDRGDFDAFDIWGQGTMVTVSS
VL: DVVMTQSPLSLPVTPGEPASISCRSSQSLLHSNGFNYVDWYLQKPGQSPHLLIYFGSYRASGVPDRFSGSGSGTDFTLKISRVEAEDVGVYYCMQALQTPPWTFGQGTKVEIRRTVAAPDIQMTQSPSSLSASVGDRVTITCQASQDITNYLNWYQQKPGKAPKLLIYDASNLETGVPSRFSGSGSGTDFTFTISSLQPEDIATYNCQQCENFPITFGQGTRLEIK
notes: DVD-Ig, outer AB005 / inner AB063
Turning to B5, in assay [1], the binding result was “no binding (tested: 10-200 nM)”. In assay [2], the Kd worked out at 17 nM, the koff was 0.00092 s⁻¹ and the kon amounted to 55000 M⁻¹ s⁻¹.

B6: AB067 (antibody, V domains shown)
VH: EVQLLESGGGLVQPGGSLRLSCAASGFTFSHYVMAWVRQAPGKGLEWVSSISSSGGWTLYADSVKGRFTISRDNSKNTLYLQMNSLRAEDTAVYYCTRGLKMATIFDYWGQGTLVTVSS
VL: QSALTQPASVSGSPGQSITISCTGTSSDVGSYNVVSWYQQHPGKAPKLIIYEVSQRPSGVSNRFSGSKSGNTASLTISGLQTEDEADYYCCSYAGSSIFVIFGGGTKVTVLG
notes: parent antibody
For B6, in assay [4], the “GEO MEAN” value came out at 127.

B7: DVD2320 (bispecific antibody)
VH: EVQLVQSGGGLVKPGGSLRLSCAASGFTFSSYAMHWVRQAPGKGLEWVAVISYDGSNKYYADSVKGRFTISRDNSKNTLYLQMNSLRAEDTAVYYCARFSGWPNNYYYYGMDVWGQGTTVTVSSASTKGPEVQLLESGGGLVQPGGSLRLSCAASGFTFSHYVMAWVRQAPGKGLEWVSSISSSGGWTLYADSVKGRFTISRDNSKNTLYLQMNSLRAEDTAVYYCTRGLKMATIFDYWGQGTLVTVSS
VL: DVVMTQSPLSLPVTPGEPASISCRSSQSLLHSNGFNYVDWYLQKPGQSPHLLIYFGSYRASGVPDRFSGSGSGTDFTLKISRVEAEDVGVYYCMQALQTPPWTFGQGTKVEIRRTVAAPQSALTQPASVSGSPGQSITISCTGTSSDVGSYNVVSWYQQHPGKAPKLIIYEVSQRPSGVSNRFSGSKSGNTASLTISGLQTEDEADYYCCSYAGSSIFVIFGGGTKVTVL
notes: DVD-Ig, outer AB005 / inner AB116
As for B7, the binding result in assay [1] was “no binding (tested: 10-200 nM)”. Further, in assay [2], the Kd came to 25 nM, the koff was 0.00094 s⁻¹ and the kon was 37000 M⁻¹ s⁻¹.

B8: DVD2293 (bispecific antibody)
VH: EVQLVESGGGLVQPGGSLRLSCAASGFTFSIYSMNWVRQAPGKGLEWVSYISSSSSTIYYADSVKGRFTISRDNAKNSLYLQMNSLRDEDTAVYYCARDRGDFDAFDIWGQGTMVTVSSASTKGPEVQLVESGGGLVQPGGSLRLSCAASGFSLTNYGVHWVRQAPGKGLEWLGVGWSGGNTDYNTPFTSRLTINKDNSKNTVYLQMNSLRAEDTAVYYCARALTWYDYEFAYWGQGTLVTVSS
VL: DIQMTQSPSSLSASVGDRVTITCQASQDITNYLNWYQQKPGKAPKLLIYDASNLETGVPSRFSGSGSGTDFTFTISSLQPEDIATYNCQQCENFPITFGQGTRLEIKRTVAAPDILLTQSPGTLSLSPGERATLSCRASQSIYTNIHWYQQKPGQAPRLLIKYASESISGIPDRFSGSGSGTDFTLTISRLEPEDFAVYYCQQNLNWPTTFGQGTKLEIK
notes: DVD-Ig, outer AB063 / inner AB400
Consider B8, for which the “GEO MEAN” value in assay [5] amounted to 135.

B9: DVD2322 (bispecific antibody)
VH: EVQLVQSGGGLVKPGGSLRLSCAASGFTFSSYAMHWVRQAPGKGLEWVAVISYDGSNKYYADSVKGRFTISRDNSKNTLYLQMNSLRAEDTAVYYCARFSGWPNNYYYYGMDVWGQGTTVTVSSASTKGPQVQLQQWGAGLLKPSETLSLTCAVYGGSFSGYYWSWIRQPPGKGLEWIGEINHSGSTNYNPSLKSRVTISVETSKNQFSLKLSSVTAADTAVYYCARDKWTWYFDLWGRGTLVTVSS
VL: DVVMTQSPLSLPVTPGEPASISCRSSQSLLHSNGFNYVDWYLQKPGQSPHLLIYFGSYRASGVPDRFSGSGSGTDFTLKISRVEAEDVGVYYCMQALQTPPWTFGQGTKVEIRRTVAAPDIEMTQSPDSLAVSLGERATINCRSSQSVLYSSSNRNYLAWYQQNPGQPPKLLIYWASTRESGVPDRFSGSGSGTDFTLTISSLQAEDVAVYYCQQYYSTPRTFGQGTKVEIK
notes: DVD-Ig, outer AB005 / inner AB062
Turning to B9, the binding result in assay [1] is given as “no binding (tested: 10-200 nM)”. Also, in assay [2], the Kd is 17 nM, the koff stood at 0.00087 s⁻¹ and the kon worked out at 51000 M⁻¹ s⁻¹.

B10: AB063 (antibody, V domains shown)
VH: EVQLVESGGGLVQPGGSLRLSCAASGFTFSIYSMNWVRQAPGKGLEWVSYISSSSSTIYYADSVKGRFTISRDNAKNSLYLQMNSLRDEDTAVYYCARDRGDFDAFDIWGQGTMVTVSS
VL: DIQMTQSPSSLSASVGDRVTITCQASQDITNYLNWYQQKPGKAPKLLIYDASNLETGVPSRFSGSGSGTDFTFTISSLQPEDIATYNCQQCENFPITFGQGTRLEIKR
notes: parent antibody
For B10, the “GEO MEAN” value in assay [4] came out at 128.

B11: AB062 (antibody, V domains shown)
VH: QVQLQQWGAGLLKPSETLSLTCAVYGGSFSGYYWSWIRQPPGKGLEWIGEINHSGSTNYNPSLKSRVTISVETSKNQFSLKLSSVTAADTAVYYCARDKWTWYFDLWGRGTLVTVSS
VL: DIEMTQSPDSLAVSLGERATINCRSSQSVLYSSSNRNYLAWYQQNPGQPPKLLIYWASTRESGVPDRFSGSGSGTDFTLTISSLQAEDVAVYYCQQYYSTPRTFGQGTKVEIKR
notes: parent antibody
Take B11: in assay [4], the “GEO MEAN” value is 132.

B12: DVD2334 (bispecific antibody)
VH: QVQLQESGPGLVKPSEILSLTCTVSGGSISSHYWSWVRQPPGKGLEWIGYIYYSGSTNYNPSLKSRVTISVDTSKNQFSLNLSSVTAADTAVYYCARIPNYYDRSGYYPGYWYFDLWGRGTLVTVSSASTKGPQVQLQQWGAGLLKPSETLSLTCAVYGGSFSGYYWSWIRQPPGKGLEWIGEINHSGSTNYNPSLKSRVTISVETSKNQFSLKLSSVTAADTAVYYCARDKWTWYFDLWGRGTLVTVSS
VL: QAVLTQPSSLSAPPGASASLTCTLRSGFNVDSYRISWYQQKPGSPPQYLLRYKSDSDKQQGSGVPSRFSGSKDASANAGILLISGLQSEDEADYYCMIWHSSAWVFGGGTKLTVLRQPKAAPDIEMTQSPDSLAVSLGERATINCRSSQSVLYSSSNRNYLAWYQQNPGQPPKLLIYWASTRESGVPDRFSGSGSGTDFTLTISSLQAEDVAVYYCQQYYSTPRTFGQGTKVEIK
notes: DVD-Ig, outer AB034 / inner AB062
B12: the binding result in assay [1] is listed as “no binding (tested: 10-200 nM)”. For the same molecule, in assay [2], the Kd came to 4.9 nM.
